Assay results published in US20180296639A1 (Hoffmann-La Roche, published 2018).

B1: glyceraldehyde-3-phosphate dehydrogenase (GAPDH), human, endogenous in human retinal pericytes (hRP) (enzyme)
chain: not shown
notes: Endogenous protein in lysates of human retinal pericytes; The proposed model says GAPDH is S-nitrosylated when it associates with Siah1
B2: E3 ubiquitin ligase seven in absentia homolog 1 (Siah1), human, endogenous in human retinal pericytes (hRP) (enzyme)
chain: MSRQTATALPTGTSKCPPSQRVPALTGTTASNNDLASLFECPVCFDYVLPPILQCQSGHLVCSNCRPKLTCCPTCRGPLGSIRNLAMEKVANSVLFPCKYASSGCEITLPHTEKADHEELCEFRPYSCPCPGASCKWQGSLDAVMPHLMHQHKSITTLQGEDIVFLATDINLPGAVDWVMMQSCFGFHFMLVLEKQEKYDGHQQFFAIVQLIGTRKQAENFAYRLELNGHRRRLTWEATPRSIHEGIATAIMNSDCLVFDTSIAQLFAENGNLGINVTISMC
notes: Endogenous protein in lysates of human retinal pericytes, immunoprecipitated with an anti-Siah1 antibody

Assays:
[1] = target: B2; test: co-immunoprecipitation from hRP lysates: IP anti-Siah1, western blot anti-GAPDH
Description: (§1) Equal amounts of protein (1000 μg) from each sample were mixed with 10 μg of anti-Siah1 antibody overnight at 4° C. Pierce Protein A/G Magnetic Beads were pre-cleared and added to the antigen sample/antibody mixture at room temperature for 1 hr. Beads were collected with a magnetic stand and eluted using 50 μl 4× SDS-PAGE reducing sample buffer at 100° C. for 10 mins. The immuno-complexes were then subjected to Western blot analysis. Siah1-depleted samples served as controls for total pull down of Siah1 from each lysate.

[2] = target: B1; test: as above
Description: as §1

Binder | fold increase in GAPDH/Siah1 association (high glucose against osmotic control) [1] | binding result [2]
B1 | 1.5 fold | 
B2 |  | binds
